Data published in patent publication US20180362994, “TRANSCRIPTION FACTORS THAT REGULATE NICOTINE BIOSYNTHESIS IN TOBACCO” (NORTH CAROLINA STATE UNIVERSITY, published 2018).

Target: NtMYC2aΔN (C-terminal bHLH domain) (Nicotiana tabacum)
Assay: EMSA; 10 mM Tris, 50 mM KCl, 1 mM DTT, poly(dI-dC), room temperature; 500x cold probe reduced the signal
Conditions: tags: GST fusion, cleaved with thrombin; label: 3' biotin
Protocol: EMSA was performed according to manual of the kit (LightShift,) Chemiluminescent EMSA Kit, Pierce). The binding buffer was 10 mM Tris, 50 mM KCl, 1 mM DTT, 0.05 μg/μl poly(di-dc), 0.05% NP-40, and 2.5% (v/v) glycerol. The probe was 20 fmol for each reaction. The cold probe and mutated probe were 10 pmol (500×) and the protein was 0.75 μg MYC2aΔN. The binding reaction was performed at room temperature for 20 min. The reaction mixture was separated on a 5% polyacrylamide gel and blotted on Hybond™-N⁺ membrane (Amersham, Piscataway, N.J., USA). UV crosslinker was used to crosslink the DNA to membrane. The membrane was probed and signal was detected according to the manual of kit (Chemiluminescent Nucleic Acid Detection Module Kit, Pierce). Kodak BioMax MS film (Carestream Health, Inc. Rochester, N.Y.) was exposed to record the signal.
Three G-boxes (G2, G3 and G4) were identified in the 0.6 kb NtQPT2 promoter (NCBI accession No. AJ748263), among which G2 box has the highest binding strength with NtMYC2b (Shoji and Hashimoto, 2011). To validate that NtMYC2a binds to G2-box. EMSA experiment was performed with probes of 38 bp consisting of a G2 box (CACGTT) and flanking regions from the NtQPT2 promoter and mutated probe with mutation in the G2 box sequence. We cloned the full length of NtMYC2a and expressed the recombinant protein (NtMYC2a fused with GST) in E. coli. […]

NtMYC2aΔN (C-terminal bHLH domain) (Nicotiana tabacum), sequence (chain, as listed by the source mutant): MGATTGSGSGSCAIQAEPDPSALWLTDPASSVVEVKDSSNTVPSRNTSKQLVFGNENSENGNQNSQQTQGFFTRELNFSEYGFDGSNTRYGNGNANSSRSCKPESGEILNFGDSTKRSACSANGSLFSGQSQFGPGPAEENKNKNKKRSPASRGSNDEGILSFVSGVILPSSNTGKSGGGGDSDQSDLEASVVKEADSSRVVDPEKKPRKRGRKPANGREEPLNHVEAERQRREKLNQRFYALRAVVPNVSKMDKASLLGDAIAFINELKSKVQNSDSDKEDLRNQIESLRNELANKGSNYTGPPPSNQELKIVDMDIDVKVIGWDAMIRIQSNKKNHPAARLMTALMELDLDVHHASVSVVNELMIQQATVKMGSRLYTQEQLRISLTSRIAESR

B1: G2-box probe of NtQPT2 promoter (dsDNA)
DNA 1: AGTAGCTGAACACGTTTTATTTATGGTTGTTGAATAGT
DNA 2: ACTATTCAACAACCATAAATAAAACGTGTTCAGCTACT
Question: Does B1 bind?
Answer: binds
